Results as given in PMC8867601, “The TERB1 MYB domain suppresses telomere erosion in meiotic prophase I”.

Assays:
Settings in all cases: protein: recombinant; tags: none after Ulp1 cleavage of His-Smt3; label: 32P (T4 PNK)
hTERB1-MYB H716R = target: T1, hTERB1-MYB H716R (Homo sapiens, UniProt Q8NA31 666-719, H716R); test: EMSA; 150 nM probe; 50 mM Tris-HCl pH 8.0, 6.5% glycerol, 20 mM NaCl, 5 mM DTT, 150 nM probe, 10 ul, 30 min on ice; 4-20% TBE native gel
T1 sequence: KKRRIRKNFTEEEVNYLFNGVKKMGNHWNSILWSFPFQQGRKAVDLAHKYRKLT

hTERB1-MYB A712K = target: T2, hTERB1-MYB A712K (Homo sapiens, UniProt Q8NA31 666-719, A712K); test: as above
T2 sequence: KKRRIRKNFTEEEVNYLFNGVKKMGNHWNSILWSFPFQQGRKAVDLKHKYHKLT

hTERB1-MYB H713D = target: T3, hTERB1-MYB H713D (Homo sapiens, UniProt Q8NA31 666-719, H713D); test: as above
T3 sequence: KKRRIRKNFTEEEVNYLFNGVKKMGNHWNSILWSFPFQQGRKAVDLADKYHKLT

hTERB1-MYB triple mutant = target: T4, hTERB1-MYB triple mutant (Homo sapiens, UniProt Q8NA31 666-719, A712K;H713D;H716R); test: EMSA; 2-8 uM protein, 150 nM probe; 50 mM Tris-HCl pH 8.0, 6.5% glycerol, 20 mM NaCl, 5 mM DTT, 150 nM probe, 10 ul, 30 min on ice; 4-20% TBE native gel
T4 sequence: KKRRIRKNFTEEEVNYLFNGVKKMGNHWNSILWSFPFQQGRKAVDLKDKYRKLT

Measured: binding result

B1: dsDNA_telo_8-mer (TTAGGG)8 (dsDNA)
DNA 1: TTAGGGTTAGGGTTAGGGTTAGGGTTAGGGTTAGGGTTAGGGTTAGGG
DNA 2: CCCTAACCCTAACCCTAACCCTAACCCTAACCCTAACCCTAACCCTAA
no binding: all assays above
